Source: the supplement of paper PMC7125110
± gives the standard error. Fewer inactive variants are shown than the library holds.

B1: glmS ribozyme (parent)
chain: AUAAAAGCGCCAGAACUACAGAAAUGUAGUUGACGAGGAGGAGGUUUAUCGAAUUUUCGGCGGAUGCCUCCAAA

Key:
Details in all cases: with glucosamine-6-phosphate
glucosamine-6-phosphate [1] = variants of: B1; assay: self-cleavage kobs at 40 uM GlcN6P; higher = faster cleavage; RNA array
How it was run: (§1)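 Weighted Michaelis–Menten fits across concentrations supplied kcat and KM, based on kobs from one- or two-exponential decay fits to normalised per-tile medians. The data came from barcoded ribozyme variants transcribed in situ by E. coli RNA polymerase on sequenced MiSeq chips and tracked at 37 °C by a hybridised Cy3 probe. Glucosamine-6-phosphate (40 μM to 10 mM) in HEPES/KCl/Mg(OAc)2 buffer was flowed in.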

glucosamine-6-phosphate [2] = variants of: B1; assay: self-cleavage kobs at 160 uM GlcN6P; higher = faster cleavage; RNA array
How it was run: as §1

glucosamine-6-phosphate [3] = variants of: B1; assay: self-cleavage kobs at 640 uM GlcN6P; higher = faster cleavage; RNA array
How it was run: as §1

glucosamine-6-phosphate [4] = variants of: B1; assay: self-cleavage kobs at 2500 uM GlcN6P; higher = faster cleavage; RNA array
How it was run: as §1

glucosamine-6-phosphate [5] = variants of: B1; assay: self-cleavage kobs at 10000 uM GlcN6P; higher = faster cleavage; RNA array
How it was run: as §1

Variant	self-cleavage kobs at 40 uM GlcN6P (glucosamine-6-phosphate [1])	self-cleavage kobs at 160 uM GlcN6P (glucosamine-6-phosphate [2])	self-cleavage kobs at 640 uM GlcN6P (glucosamine-6-phosphate [3])	self-cleavage kobs at 2500 uM GlcN6P (glucosamine-6-phosphate [4])	self-cleavage kobs at 10000 uM GlcN6P (glucosamine-6-phosphate [5])
A14U G35U G44C	< 1e-05 s⁻¹	< 1e-05 s⁻¹	< 1e-05 s⁻¹	< 1e-05 s⁻¹	< 1e-05 s⁻¹
C10U A15G C67G	< 1e-05 s⁻¹	–	6.46e-05 ± 2.3e-05 s⁻¹	–	–
C16U G63U G66A	< 1e-05 s⁻¹	–	–	–	< 1e-05 s⁻¹
C11A A14U G66U C67A	< 1e-05 s⁻¹	–	–	–	–
G51C G60U A64U	< 1e-05 s⁻¹	–	–	–	–
G51U A53C C67G	< 1e-05 s⁻¹	–	–	–	–
G35A A48U C71U	< 1e-05 s⁻¹	–	–	–	–
G9A G62U	< 1e-05 s⁻¹	< 1e-05 s⁻¹	–	< 1e-05 s⁻¹	–
A42C G51U	< 1e-05 s⁻¹	< 1e-05 s⁻¹	< 1e-05 s⁻¹	–	< 1e-05 s⁻¹
C10G G29C G40A	< 1e-05 s⁻¹	–	–	–	< 1e-05 s⁻¹
G44U C58U C71U	< 1e-05 s⁻¹	–	< 1e-05 s⁻¹	< 1e-05 s⁻¹	< 1e-05 s⁻¹
C8U G13C G51A	< 1e-05 s⁻¹	–	–	< 1e-05 s⁻¹	< 1e-05 s⁻¹
G9A C16U	< 1e-05 s⁻¹	< 1e-05 s⁻¹	< 1e-05 s⁻¹	< 1e-05 s⁻¹	3.09e-05 ± 1.5e-05 s⁻¹
U47G A52U U69G	4.05e-05 ± 1.5e-05 s⁻¹	–	–	–	3.79e-05 ± 1.3e-05 s⁻¹
G44A G60A	< 1e-05 s⁻¹	< 1e-05 s⁻¹	< 1e-05 s⁻¹	< 1e-05 s⁻¹	< 1e-05 s⁻¹
U49G A53U U56A C67A C70A	4.31e-05 ± 1.9e-05 s⁻¹	–	–	0.000146 ± 2.4e-05 s⁻¹	–
A14G G44U A64U	< 1e-05 s⁻¹	–	< 1e-05 s⁻¹	< 1e-05 s⁻¹	–
G13A U46G	< 1e-05 s⁻¹	< 1e-05 s⁻¹	–	–	0.00013 ± 3e-05 s⁻¹
A15C U30G	0.00258 ± 0.00062 s⁻¹	0.00591 ± 0.0015 s⁻¹	0.0305 ± 0.0089 s⁻¹	0.0288 ± 0.011 s⁻¹	0.153 ± 0.058 s⁻¹
A53C C58A G60U	< 1e-05 s⁻¹	–	–	–	–
G7U C8G U47G C58U C61G U69G	0.000436 ± 0.00012 s⁻¹	–	–	–	0.000464 ± 0.00012 s⁻¹
C34A C71A	< 1e-05 s⁻¹	–	< 1e-05 s⁻¹	–	< 1e-05 s⁻¹
A42C U49A	< 1e-05 s⁻¹	< 1e-05 s⁻¹	< 1e-05 s⁻¹	< 1e-05 s⁻¹	–
U45G C58U	< 1e-05 s⁻¹	< 1e-05 s⁻¹	–	–	–

Variant	self-cleavage kobs at 40 uM GlcN6P (glucosamine-6-phosphate [1])	self-cleavage kobs at 160 uM GlcN6P (glucosamine-6-phosphate [2])	self-cleavage kobs at 640 uM GlcN6P (glucosamine-6-phosphate [3])	self-cleavage kobs at 2500 uM GlcN6P (glucosamine-6-phosphate [4])	self-cleavage kobs at 10000 uM GlcN6P (glucosamine-6-phosphate [5])
C8U A15G G35U C67U	< 1e-05 s⁻¹	–	–	–	–
C8G G32C G62U	< 1e-05 s⁻¹	–	–	–	< 1e-05 s⁻¹
A12C A64U C68G	< 1e-05 s⁻¹	–	–	–	–
G9A A14C G37C G38U U49C U69A	< 1e-05 s⁻¹	–	–	–	–
C8U G35A G59U	< 1e-05 s⁻¹	–	–	–	–
U31A A64C	< 1e-05 s⁻¹	–	–	–	4.57e-05 ± 1e-05 s⁻¹
G37U G40C A64U	< 1e-05 s⁻¹	–	–	–	< 1e-05 s⁻¹
U54C C71U	0.000802 ± 8.6e-05 s⁻¹	0.00142 ± 0.00023 s⁻¹	0.00401 ± 0.00061 s⁻¹	0.0101 ± 0.0027 s⁻¹	0.036 ± 0.0094 s⁻¹
A12G G40C G43C	< 1e-05 s⁻¹	–	< 1e-05 s⁻¹	–	< 1e-05 s⁻¹
G29A C70U	0.000121 ± 1.3e-05 s⁻¹	0.000201 ± 2.9e-05 s⁻¹	0.000483 ± 6e-05 s⁻¹	–	0.0021 ± 0.0006 s⁻¹
C50G G51U	< 1e-05 s⁻¹	< 1e-05 s⁻¹	–	–	–
A6G G44U G62U G63A U69A	< 1e-05 s⁻¹	< 1e-05 s⁻¹	< 1e-05 s⁻¹	< 1e-05 s⁻¹	< 1e-05 s⁻¹
G40C C61A	< 1e-05 s⁻¹	–	–	< 1e-05 s⁻¹	–
G41U C61G	< 1e-05 s⁻¹	< 1e-05 s⁻¹	< 1e-05 s⁻¹	< 1e-05 s⁻¹	< 1e-05 s⁻¹
A12C U31A C34U A36C A52G C58A G63U	< 1e-05 s⁻¹	–	–	–	< 1e-05 s⁻¹
C34U G66U	< 1e-05 s⁻¹	< 1e-05 s⁻¹	–	–	< 1e-05 s⁻¹
G7U A39C	< 1e-05 s⁻¹	< 1e-05 s⁻¹	< 1e-05 s⁻¹	–	< 1e-05 s⁻¹
C34A U56C G63A	< 1e-05 s⁻¹	–	–	–	< 1e-05 s⁻¹
U46G C67G C68G	2.82e-05 ± 1.4e-05 s⁻¹	–	–	7.29e-05 ± 2.5e-05 s⁻¹	–
G7U A42G	< 1e-05 s⁻¹	< 1e-05 s⁻¹	< 1e-05 s⁻¹	< 1e-05 s⁻¹	< 1e-05 s⁻¹
G37C G62C	< 1e-05 s⁻¹	–	< 1e-05 s⁻¹	–	< 1e-05 s⁻¹
G13A C16G A64U	< 1e-05 s⁻¹	–	–	–	–
G7A G51U	< 1e-05 s⁻¹	< 1e-05 s⁻¹	< 1e-05 s⁻¹	< 1e-05 s⁻¹	–
G35A A53C	< 1e-05 s⁻¹	< 1e-05 s⁻¹	< 1e-05 s⁻¹	–	< 1e-05 s⁻¹
